The text below walks through data of patent US20210403580A1 (AJOU UNIVERSITY INDUSTRY ACADEMIC COOPERATION FOUNDATION, published 2021).

The assay addresses T1, hIL-4Rα (Sino Biological) (human, UniProt P24394 26-232).
T1 construct: Bought protein immobilised on the CM5 chip for SPR
Put plainly: SPR (Biacore 2000), hIL-4Rα (Sino Biological) immobilised to about 500 RU on CM5, IgG as analyte. The protocol:
Specifically, hIL-4Rα (Sino Biological) was diluted to a concentration of […] in a 10 mM NaAc buffer (pH 4.0) and immobilized to about 500 response units (RU) on a CM5 sensor chip (GE Healthcare). […] After binding and dissociation analysis, regeneration of the CM5 chip was carried out by flushing the CM5 chip with a buffer solution (10 mM Glycine, pH 2.0) at a flow rate of 30 μl/min for 90 seconds. The sensorgram, obtained by binding for 90 seconds and dissociation for 900 seconds, was normalized and the value of a blank cell was subtracted therefrom to calculate the affinity.
In this manner, affinity may vary depending on the level of antigen immobilization.
On the technique in general: In SPR one partner is held on a chip, and binding of the other changes the refractive index at the surface.

B1: 4R25 (antibody, V domains shown)
VH: EVQLLESGGGLVQPGGSLRLSCAASGFTFSNYAMSWVRQAPGKGLEWVSWISPNSGNIYYADSVKGRFTISRDNSKNTLYLQMNSLRAEDTAVYYCARRPLSAAWSHSSYYNAMDVWGQGTLVTVSS
VL: QSVLTQPPSAPGTPGQRVTISCTGSSSNIGSNSVNWYQQLPGTAPKLLIYDDSHRPSGVPDRFSGSKSGTSASLAISGLRSEDEADYYCDAWDSSLSAYVFGGGTKLTVL
Regarding B1, the Kd (as a rule, the concentration at which binding is half-saturated) is 1.21 nM; the koff (as a rule, the first-order rate constant of dissociation) is 0.000177 s⁻¹; the kon (usually a measure of how fast the partners come together) was determined as 147000 M⁻¹ s⁻¹.
